We go through one sequence from patent US20250127918A1, “SITE-SELECTIVE CONJUGATION OF A PHARMACEUTICAL AGENT TO AN ANTIBODY USING AN AFFINITY PEPTIDE” (priority 2023, published 2025).

For one assay, the target named is T1, Trastuzumab (Homo sapiens, UniProt P01857, D239E/L241M).
T1 construct: purchased Syd Labs Inc; MedChemExpress LLC; Bio X Cell
Briefly: Determination of the modification sites (Trypsin/Lys-C digest, nLC-MS/MS). The assay is classed as biochemical. Conditions: Tmab, LC-MS/MS sequencing. As to the method: The modified trastuzumab (30 μg) from entry 6 of 5.2.1 was diluted to 36 μL using Tris buffer (50 mM, pH 8.0). PNGase F (New England BioLabs, 200 units) was added to the solution and incubated at 37° C. for 4 hours. The reaction solution was then brought to room temperature, and urea solution (6M in 50 mM Tris pH 8.0, 14 μL) and DTT solution (200 mM, 1.5 μL) were added and incubated at 37° C. for 1 hour. After that, iodoacetamide (800 mM, 1 μL) was added and incubated at room temperature for 30 minutes. The resulting solution was diluted 2-fold using Tris buffer (50 mM, pH 8.0), and then Trypsin/Lys-C mix (Promega, 0.2 μg/μL in solution, 6 μL) was added and incubated at 37° C. for 18 hours. The reaction solution was then purified by pipetting with Ziptip, lyophilized, and analyzed by nLC-MS/MS (using nLC-MS/MS method B). Obtained raw data were analyzed using Thermo Scientific FreeStyle™ 1.6. […]
The modified trastuzumab (30 μg) from entry 6 of 5.2.1 was diluted to 36 μL using Tris buffer (50 mM, pH 8.0). […] The reaction solution was then purified by pipetting with Ziptip, lyophilized, and analyzed by nLC-MS/MS (using nLC-MS/MS method B). Obtained raw data were analyzed using Thermo Scientific FreeStyle™ 1.6. […]

A further assay deals with Denosumab (hIgG2). As to the kind of experiment: Small bioconjugation handle installation to other IgGs (Q-ToF LC-MS). The assay is classed as biochemical, human. The note with it: 20 equivalents, room temperature, HEPES pH 8.5. As to the method: (§1) First, the electrophile-attached Z33 peptide reagent was dissolved in water to prepare a 2 mg/mL solution.
as §1

T1 sequence (P01857 with tags, fused parts or gaps isoform P01857-1 D239E/L241M, other chains not shown): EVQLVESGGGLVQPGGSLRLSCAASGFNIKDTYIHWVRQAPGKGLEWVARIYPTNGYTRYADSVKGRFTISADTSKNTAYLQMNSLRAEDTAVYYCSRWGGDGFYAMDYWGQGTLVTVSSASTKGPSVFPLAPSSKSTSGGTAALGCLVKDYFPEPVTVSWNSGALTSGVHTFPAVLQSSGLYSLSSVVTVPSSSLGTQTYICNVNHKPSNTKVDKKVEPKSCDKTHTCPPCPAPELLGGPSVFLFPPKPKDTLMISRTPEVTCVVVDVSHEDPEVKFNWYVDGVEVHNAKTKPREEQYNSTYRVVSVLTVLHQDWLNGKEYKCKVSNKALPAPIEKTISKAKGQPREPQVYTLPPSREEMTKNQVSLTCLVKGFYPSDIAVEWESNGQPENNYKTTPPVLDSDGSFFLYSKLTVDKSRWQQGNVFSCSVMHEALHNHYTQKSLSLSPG

For “FNMQQQRRFYEALHD PNLNHcyEQRNAKIKSI RDD [PEL-21]”, the Site of modification entry with Trastuzumab is listed as “Lys-317”. Further, in the assay on Denosumab (hIgG2), the “Light chain total conversion” value is listed as 1%.
